Data reported in patent publication US20180094051A1, “METHOD FOR INHIBITING LYMPHANGIOGENESIS BY ADMINISTRATION OF AN INHIBITOR OF THE CXCL12 PATHWAY” (Tsinghua University, priority 2012, published 2018).
Entries after “also recorded” stand apart in the source; their conditions may differ.

Columns and labels:
Assay type in all cases: cell-based
HIF-1α = assay: Immunoblotting of HIF-1α in lymphatic endothelial cells; conditions: mouse lymphatic endothelial cells, 100 ng/mL VEGF-C
chemokine receptor CXCR4 [1] = assay: Flow cytometry of CXCR4 on the surface of lymphatic endothelial cells; conditions: starved mouse lymphatic endothelial cells, 100 ng/mL VEGF-C, 24 hours
Procedure: Mouse primary lymphatic endothelial cells at passage 2 or 3 in good condition were selected and seeded into four 6 cm Petri dishes. Two groups of cells were cultured normally, while the other two groups of cells were treated by replacing the medium with a medium free of serum and growth factors when the cell density reached 80%, and starved overnight. One of the two groups was cultured for 24 hours after the medium was replaced with a serum-free culture medium containing 100 ng/mL of VEGF-C. The four groups of cells were detected for the expression level of chemokine receptor CXCR4 on the cell surface by flow cytometry. The group of cells cultured normally was used as negative control.
The cells were treated with 0.25% disodium EDTA (Ethylenediaminetetraacetic Acid Disodium Salt, EDTA), then washed with ice-cold PBS. The cells were suspended and centrifuged at a low speed (600 g, 3 minutes; the low-speed centrifugations in this experiment all referred to centrifugation at this speed for this time). The cells were resuspended in 1 mL of PBS containing 10% goat serum and then incubated for 15 minutes. […]
Each group of cells were resuspended in 1 mL of PBS containing 2% goat serum, and then 1 μg of fluorescein-labeled secondary antibody was added. […] The expression of CXCR4 on cell surface was analyzed by flow cytometry (FACS Calibur Flow Cytometry System, Becton Dickinson).

chemokine receptor CXCR4 [2] = assay: Immunoblotting of CXCR4 in lymphatic endothelial cells (incl. HIF-1α RNA interference); conditions: mouse lymphatic endothelial cells, 100 ng/mL VEGF-C, 6, 12 and 24 hours
Procedure: Mouse primary lymphatic endothelial cells at passage 2 or 3 in good condition were selected, and starved overnight by replacing the culture medium with a fresh medium free of serum and growth factors. Then the medium was replaced with a medium containing 100 ng/mL of VEGF-C. The cells were incubated for 6, 12 and 24 hours, respectively, and then trypsinized and collected by centrifugation for detecting the expression level of chemokine receptor CXCR4 in the cells by immunoblotting.
The samples were subjected to SDS-PAGE (the concentration of separation gel was 15%). Protein bands were transferred to polyvinylidene difluoride (PVDF) membrane (purchased from Millipore) at 100 mA for 3 hours using an electroblotting device in ice bath. TBST buffer (20 mM Tris, pH7.4, 150 mM NaCl, 0.1% Tween-20) was formulated for preparing blocking solution, primary antibody solution and secondary antibody solution. The PVDF membrane was further incubated in blocking solution containing 5% skim milk for 1 hour at room temperature with gentle shaking. The membrane was then washed with TBST for 5 times, 5 minutes each. […]
The siRNA for interfering with the chemical synthesis of HIF-1α was purchased from Santa Cruz Biotechnology, and the negative control siRNA was purchased from GenePharma, Shanghai. […] HIF-1α knock-down efficiency was detected by immunoblotting. […]

B1: VEGF-C: Vascular Endothelial Growth Factor C, the major pro-lymphangiogenesis factor; purchased from R&D Systems (protein, UniProt P49767 112-227, looked up)
Vascular endothelial growth …: AHYNTEILKSIDNEWRKTQCMPREVCIDVGKEFGVATNTFFKPPCVSVYRCGGCCNSEGLQCMNTSTSYLSKTLFEITVPLSQGPKPVTISFANHTSCRCMSKLDVYRQVHSIIRR
HIF-1α
  expression level of HIF-1α: could indeed upregulate the expression level of HIF-1α; also recorded: could up-regulate the expression of CXCR4 and HIF-1α
Chemokine receptor CXCR4 [1]
  cell surface CXCR4 protein level: could indeed upregulate the expression level of chemokine receptor CXCR4
Chemokine receptor CXCR4 [2]
  expression level of CXCR4: could up-regulate the expression of CXCR4 and HIF-1α
